Reference: publication PMC9396027, “Comparative transcriptome analysis of MDBK cells reveals that BoIFN-γ augmented host immune responses to bovine herpesvirus 1 infection” (Frontiers in Microbiology, 2022)

Biological target: the molecule itself
Assay: SEC; Superdex 200 size exclusion column, refolded BoIFN-γ; peak mass compared with the monomer mass (14.2 kDa)

B1: Bovine interferon gamma (BoIFN-γ) (ligand, UniProt P07353 24-166, looked up)
chain: QGQFFREIENLKEYFNASSPDVAKGGPLFSEILKNWKDESDKKIIQSQIVSFYFKLFENLKDNQVIQRSMDIIKQDMFQKFLNGSSEKLEDFKKLIQIPVDDLQIQRKAINELIKVMNDLSPKSNLRKRKRSQNLFRGRRASM
notes: Bovine interferon gamma; synthesised gene encoding 122 amino acids, according to GenBank EU276066, nucleotides 24-390; monomer 14.2 kDa; Cloned into pET-21a(+); 122 amino acids is shorter than the mature protein as I recall it, so the construct is probably truncated; also called Bovine IFN-γ; bovine interferon gamma dimer protein
- stoichiometry N: 2
